{"source": "patent US10358663B2", "about": "“Method of production of 2,4-dihydroxybutyric acid” (ADISSEO FRANCE S.A.S., priority 2010, dated 2019)", "molecules": {"B1": {"name": "YPR1: methylbutyraldehyde reductase from Saccharomyces cerevisiae (protein, listed as Saccharomyces cerevisiae)", "chain": "MPATLKNSSATLKLNTGASIPVLGFGTWRSVDNNGYHSVIAALKAGYRHIDAAAIYLNEEEVGRAIKDSGVPREEIFITTKLWGTEQRDPEAALNKSLKRLGLDYVDLYLMHWPVPLKTDRVTDGNVLCIPTLEDGTVDIDTKEWNFIKTWELMQELPKTGKTKAVGVSNFSINNIKELLESPNNKVVPATNQIEIHPLLPQDELIAFCKEKGIVVEAYSPFGSANAPLLKEQAIIDMAKKHGVEPAQLIISWSIQRGYVVLAKSVNPERIVSNFKIFTLPEDDFKTISNLSKVHGTKRVVDMKWGSFPIFQ"}, "B2": {"name": "Asd: wild-type aspartate semialdehyde dehydrogenase of E. coli, His-tagged (protein, listed as Escherichia coli)", "chain": "MKNVGFIGWRGMVGSVLMQRMVEERDFDAIRPVFFSTSQLGQAAPSFGGTTGTLQDAFDLEALKALDIIVTCQGGDYTNEIYPKLRESGWQGYWIDAASSLRMKDDAIIILDPVNQDVITDGLNNGIRTFVGGNCTVSLMLMSLGGLFANDLVDWVSVATYQAASGGGARHMRELLTQMGHLYGHVADELATPSSAILDIERKVTTLTRSGELPVDNFGVPLAGSLIPWIDKQLDNGQSREEWKGQAETNKILNTSSVIPVDGLCVRVGALRCHSQAFTIKLKKDVSIPTVEELLAAHNPWAKVVPNDREITMRELTPAAVTGTLTTPVGRLRKLNMGPEFLSAFTVGDQLLWGAAEPLRRMLRQLA", "modifications": "His tag", "notes": "wild-type aspartate semialdehyde dehydrogenase of E. coli, His-tagged"}, "B3": {"name": "Asd E241Q T136N: double mutant of E. coli aspartate semialdehyde dehydrogenase Asd (protein, listed as Escherichia coli)", "chain": "B2 chain with T136N, E241Q"}, "B4": {"name": "LysC: wild-type aspartate kinase III of E. coli encoded by the lysC gene (protein, listed as Escherichia coli)", "chain": "MSEIVVSKFGGTSVADFDAMNRSADIVLSDANVRLVVLSASAGITNLLVALAEGLEPGERFEKLDAIRNIQFAILERLRYPNVIREEIERLLENITVLAEAAALATSPALTDELVSHGELMSTLLFVEILRERDVQAQWFDVRKVMRTNDRFGRAEPDIAALAELAALQLLPRLNEGLVITQGFIGSENKGRTTTLGRGGSDYTAALLAEALHASRVDIWTDVPGIYTTDPRVVSAAKRIDEIAFAEAAEMATFGAKVLHPATLLPAVRSDIPVFVGSSKDPRAGGTLVCNKTENPPLFRALALRRNQTLLTLHSLNMLHSRGFLAEVFGILARHNISVDLITTSEVSVALTLDTTGSTSTGDTLLTQSLLMELSALCRVEVEEGLALVALIGNDLSKACGVGKEVFGVLEPFNIRMICYGASSHNLCFLVPGEDAEQVVQKLHSNLFE"}, "B5": {"name": "H39R N43H (SEQ ID NO: 81): M. sedula succinic semialdehyde reductase double mutant H39R N43H (protein, listed as Metallosphaera sedula)", "chain": "MKAAVLHTYKEPLSIEDVNISQPKAGEVKIKVKATGLCRSDVHVFEGKTPVPPPVVAGHEISGIVEEVGPGVTRVKPGDRVISAFIHPCGKCGNCVAGKENLCETFSQVRLKGVMPDGTSRLSKDGKEIRTFLGGGFAEYAIVGENALTRVPEDMDLEKVAVLGCAGLTGYGAISSSKIEPGDTVAVIGVGGVGLSTIQLLRASGAGRIIAVGTKKWKLDRAMELGATDVVNSKEIDPVKAIKEITGGGPQVVIEAGGNEDTIHMALDSVRIGGKVVLVGLPPATAMIPIRVASIVRGGIEVVGNYGGRPRVDMPKLLELVRQGRYDPSRLVTGRFRLEEINEAVKMLEEGEAIRSLIIP"}, "B6": {"name": "Ms-SSR: succinic semialdehyde reductase from Metallosphaera sedula, wild type (protein, listed as Metallosphaera sedula)", "chain": "B5 chain with R39H, H43N"}, "B7": {"name": "Hom3: wild-type aspartate kinase of Saccharomyces cerevisiae encoded by HOM3 (protein, listed as Saccharomyces cerevisiae)", "chain": "MPMDFQPTSSHSNWVVQKFGGTSVGKFPVQIVDDIVKHYSKPDGPNNNVAVVCSARSSYTKAEGTTSRLLKCCDLASQESEFQDIIEVIRQDHIDNADRFILNPALQAKLVDDTNKELELVKKYLNASKVLGEVSSRTVDLVMSCGEKLSCLFMTALCNDRGCKAKYVDLSHIVPSDFSASALDNSFYTFLVQALKEKLAPFVSAKERIVPVFTGFFGLVPTGLLNGVGRGYTDLCAALIAVAVNADELQVWKEVDGIFTADPRKVPEARLLDSVTPEEASELTYYGSEVIHPFTMEQVIRAKIPIRIKNVQNPLGNGTIIYPDNVAKKGESTPPHPPENLSSSFYEKRKRGATAITTKNDIFVINIHSNKKTLSHGFLAQIFTILDKYKLVVDLISTSEVHVSMALPIPDADSLKSLRQAEEKLRILGSVDITKKLSIVSLVGKHMKQYIGIAGTMFTTLAEEGINIEMISQGANEINISCVINESDSIKALQCIHAKLLSERTNTSNQFEHAIDERLEQLKRLGI"}}, "format_in_all_cases": "biochemical", "key": {"[1]": {"assay": "Test for malate semialdehyde reductase activity", "details": "for Activity on malate semialdehyde (cofactor NADPH): 0.24 mM NADPH", "procedure": "Test for Malate Semialdehyde Reductase Activity: Reaction: (L)-Malate semialdehyde+NAD(P)H→(L)-2,4-dihydroxybutyric acid+NAD(P)\nThe assay mixture contained 200 mM Hepes (pH 7.5), 50 mM KCl, 5 mM MgCl2, 0.24 mM NADH or NADPH, and appropriate amounts of purified enzyme. Reactions were started by adding 10 mM (L)-malate semialdehyde (malate semialdehyde was prepared freshly for each test, see Example 4). Enzymatic assays were carried out at 30° C. in 96-well flat bottomed microtiter plates in a final volume of 250 μL. The reactions were followed by the characteristic absorption of NAD(P)H at 340 nm in a microplate reader (BioRad 680XR)."}, "[2]": {"assay": "Malate semialdehyde dehydrogenase activity, reverse biosynthetic direction, NADP reduction", "procedure": "(§1) Enzymatic assay: Aspartate or malate semialdehyde dehydrogenase activities were assayed in the reverse biosynthetic direction by following the reduction of NADP during the oxidation of aspartate or malate semialdehyde to 4-phospho-(L)-aspartate or 4-phospho-(L)-malate, respectively (Roberts et al., 2003). (L)-aspartate semialdehyde (or (L)-malate semialdehyde)+NADP+Pi→4-phospho-(L)-aspartate (or 4-phospho-(L)-malate)+NADPH\n(§2) The assay mixture contained 200 mM Hepes (pH 9), 50 mM K2HPO4, 0.25 mM NADP. Reactions were started by adding (L)-aspartate semialdehyde or (L)-malate semialdehyde. (L)-Aspartate semialdehyde was added in the form of L-aspartic acid β-semialdehyde hydrate trifluoroacetate (maintained at pH3 to prevent degradation) which is a suitable substrate for enzymatic tests of homoserine dehydrogenase and aspartate semialdehyde dehysrogenase (Roberts et al., 2003). Unstable malate semialdehyde was produced freshly prior to the enzymatic tests by the deprotection of the stable malate semialdehyde derivative 2-[(4S)-2,2-dimethyl-5-oxo-1,3-dioxolan-4-yl]acetaldehyde (DMODA). […]\n(§3) Enzymatic assays were carried out in 96-well flat bottomed microtiter plates in a final volume of 250 μL at 30° C. The reactions were followed by the characteristic absorption of NADPH at 340 nm in a microplate reader (BioRad 680XR)."}, "[3]": {"assay": "Aspartate semialdehyde dehydrogenase activity, reverse biosynthetic direction, NADP reduction", "details": "His-tagged enzyme, pH 9, 30° C.", "procedure": "as §1, §2, §3"}, "[4]": {"assay": "Hydroxamate assay to verify phosphorylation of the substrate", "details": "10 mM malate, 10 mM ATP, 30 min", "procedure": "Hydroxamate assay: To verify phosphorylation of the substrate, i.e. formation of an acylphosphate anhydride, by wild-type or mutated aspartate kinases, the product of the kinase reaction was incubated with hydroxylamine to form the corresponding aspartate or malate hydroxamate derivative. The assay mixture contained 120 mM Hepes (pH 8), 200 mM KCl, 10 mM ATP, 200 mM hydroxylamine, 10 mM aspartate or malate, and appropriate amount of purified protein. The reaction was stopped after 30 min by addition of an equal volume of 1.7% (w/v) FeCl3 in 1 M hydrochloric acid. Formation of the hydroxamate-iron complex was verified by measuring its characteristic absorbance at 540 nm in a microtiter plate reader. Assay mixtures containing all components except for ATP were used as a blank."}, "[5]": {"assay": "Aspartate kinase activity, ADP production coupled to NADH oxidation", "details": "purified enzyme, 30° C., pH 7.5", "procedure": "Enzymatic assay: Aspartate or malate kinase activities were assayed by coupling ADP production in the kinase reactions to NADH oxidation in the presence of phosphoenolpyruvate, pyruvate kinase, and lactate dehydrogenase.\nAspartate (or Malate) Kinase aspartate (or malate)+ATP→4-phospho-(L)-aspartate (or 4-phospho-(L)-malate)+ADP\nPyruvate Kinase ADP+phosphoenolpyruvate→ATP+pyruvate\nLactate Dehydrogenase pyruvate+NADH→NAD^++lactate\nThe assay mixture contained 50 mM Hepes (pH 7.5), 50 mM KCl, 5 mM MgCl2, 0.24 mM NADH, 0.96 mM ATP, 0.96 mM PEP, 9 μg/mL of lactate dehydrogenase (Sigma, L2500), 12.4 μg/mL pyruvate kinase (Sigma, P1506), and appropriate amounts of purified aspartate (malate) kinase. Reactions were started by adding 50 mM (L)-aspartate or (L)-malate. Enzymatic assays were carried out at 30° C. in 96-well flat bottomed microtiter plates in a final volume of 250 μL. The reactions were followed by the characteristic absorption of NADH at 340 nm in a microplate reader (BioRad 680XR).\nMaximum activities for LysC and Hom3 on aspartate were 4.5 μmol/(min*mgprot) and 1.6 μmol/(min*mgprot), respectively. The Km value for aspartate was estimated with the method of Eadie and Hofstee by measuring initial reaction rates (v) at different substrate concentrations (c) and by extracting the slope of the v versus v/c plot. […]"}, "[6]": {"details": "10 mM (L)-malate semialdehyde, 30° C."}}, "note": "Substitutions are numbered along the chain they refer to. Names and notes keep the numbering of the source.", "data": [{"molecule": "B1", "values": [{"measurement": "Activity on malate semialdehyde (cofactor NADPH)", "setting": "[1]; [6]", "value": "0.19 μmol/(min*mg_prot)"}]}, {"molecule": "B2", "values": [{"measurement": "Activity on (L)-malate semialdehyde", "setting": "[2]; His-tagged enzyme, pH 9, 30° C.", "value": "0.01 μmol/(min*mgprot)"}, {"measurement": "Maximum specific activity, oxidation of (L)-aspartate semialdehyde to 4-phospho-(L)-aspartate", "setting": "[3]", "value": "160 μmol/(min*mgprot)"}]}, {"molecule": "B3", "values": [{"measurement": "Maximum specific activity", "setting": "[2]; substrate not given, Example 5 tests malate semialdehyde dehydrogenase activity", "value": "0.25 μmol/(min*mgprot)"}]}, {"molecule": "B4", "values": [{"measurement": "Phosphorylation of malate as verified by the hydroxamate assay", "setting": "[4]", "value": "not able to phosphorylate malate"}, {"measurement": "Maximum activity on aspartate", "setting": "[5]", "value": "4.5 μmol/(min*mgprot)"}]}, {"molecule": "B5", "values": [{"measurement": "Affinity for malate semialdehyde compared to the wild type enzyme", "setting": "[1]", "value": "improved affinity"}]}, {"molecule": "B6", "values": [{"measurement": "Activity on malate semialdehyde (cofactor NADH)", "setting": "[1]; 10 mM (L)-malate semialdehyde, 0.24 mM NADH, 30° C.", "value": "4.9 μmol/(min*mg_prot)"}, {"measurement": "Activity on malate semialdehyde (cofactor NADPH)", "setting": "[1]; [6]", "value": "4.9 μmol/(min*mg_prot)"}]}, {"molecule": "B7", "values": [{"measurement": "Phosphorylation of malate as verified by the hydroxamate assay", "setting": "[4]", "value": "not able to phosphorylate malate"}, {"measurement": "Maximum activity on aspartate", "setting": "[5]", "value": "1.6 μmol/(min*mgprot)"}]}]}
